Measured values taken from article PMC2683983 (Molecular pharmaceutics, 2009).
Numbered stars: 1 amine (or outer) side, 2 acyl side, 3 side chain; on linkers, the order of the positions; unused ones are H or OH. Bridge positions count the residues as written; N and C are the ends. Peptide text beside a SMILES is read from it. * marks the point of attachment. Doxorubicin(3'-N) = COc1cccc2c1C(=O)c1c(O)c3c(c(O)c1C2=O)C[C@@](O)(C(=O)CO)C[C@@H]3O[C@H]1C[C@H](N*)[C@H](O)[C@H](C)O1; Suc = O=C(CCC(=O)[*:2])[*:1]; AEEEA = NCCOCCOCCOCC(=O)O

Tests used:
[1] = tested on: HL-60 cells; conditions: HL-60, 10 μM, 1 h; for intracellular fluorescence distribution / uptake at 4 °C / intracellular fluorescence distribution at 37 °C: RPMI 1640, epifluorescence, rhodamine filter; for entry mechanism into cells: 37 °C compared with 4 °C
[2] = pH 7.4; cited from earlier work
[3] = tested on: ICAM-1/LFA-1-mediated heterotypic T-cell adhesion; conditions: cited from earlier work
[4] = tested on: I-domain of LFA-1; conditions: cited from earlier work

Row | Compound | intracellular fluorescence distribution / uptake at 4 °C [1] | entry mechanism into cells [1] | intracellular fluorescence distribution at 37 °C [1] | distribution ratio [2] | other results
1 | COc1cccc2c1C(=O)c1c(O)c3c(c(O)c1C2=O)C[C@@](O)(C(=O)CO)C[C@@H]3O[C@H]1C[C@H](NC(=O)CCC(=O)NCCOCCOCCOCC(=O)N[C@H]2CSSC[C@@H](C(=O)O)NC(=O)[C@H](C(C)C)NC(=O)[C@H](CO)NC(=O)CNC(=O)CNC(=O)[C@H](CCCNC(=N)N)NC(=O)[C@@H]3CCCN3C2=O)[C@H](O)[C@H](C)O1 [DOX-PEGcIBR7] ({Doxorubicin(3'-N)-Suc-AEEEA}-CPRGGSVC-OH; disulfide 1-8) | diffuse fluorescence of the conjugates inside the cell cytosol | passive diffusion | diffuse fluorescence distribution pattern in the cellular cytoplasm | – | –
2 | CNGRC [DOX-CNGRC] | – | – | – | 5.3 | –
3 | cyclo(1,8)CPRGGSVC (disulfide) [cIBR7] | – | – | – | – | activity to inhibit heterotypic T-cell adhesion compared with parent cIBR [3]: better activity; binding affinity to the isolated I-domain compared with cIBR [4]: higher
4 | cyclo(1,6)PRGGKV (head to tail) | – | – | – | – | peptide activity after introduction of Lys5 in place of Ser5 [3]: lower peptide activity
5 | COc1cccc2c1C(=O)c1c(O)c3c(c(O)c1C2=O)C[C@@](O)(C(=O)CO)C[C@@H]3O[C@H]1C[C@H](N)[C@H](O)[C@H](C)O1 [DOX, Doxorubicin, reference compound] | uptake of DOX was suppressed | – | localized inside the nucleus | 1.2 | –
6 | COc1cccc2c1C(=O)c1c(O)c3c(c(O)c1C2=O)C[C@@](O)(C(=O)CO)C[C@@H]3O[C@H]1C[C@H](NC(=O)CCC(=O)N[C@H]2CSSC[C@@H](C(=O)O)NC(=O)[C@H](C(C)C)NC(=O)[C@H](CO)NC(=O)CNC(=O)CNC(=O)[C@H](CCCNC(=N)N)NC(=O)[C@@H]3CCCN3C2=O)[C@H](O)[C@H](C)O1 [DOX-cIBR7] ({Doxorubicin(3'-N)-Suc}-CPRGGSVC-OH; disulfide 1-8) | diffuse fluorescence of the conjugates inside the cell cytosol | passive diffusion | diffuse fluorescence distribution pattern in the cellular cytoplasm | – | –
